Source: PMC3401373, “ATM-Dependent Downregulation of USP7/HAUSP by PPM1G Activates p53 Response to DNA Damage” (Molecular Cell, 2012)

Molecular target: T1, His-tagged USP7S (Ser18-containing isoform of USP7/HAUSP), purified recombinant (human, UniProt Q93009 1-1102, phosphoserine at 18 as purified from insect cells; not stated whether the phosphorylated or the dephosphorylated form stood in the pull-down of Figure 4D)
T1 construct: USP7 (HAUSP), human, the isoform that contains serine 18 (USP7S); also called pUSP7S; source: recombinant, purified from insect cells
T1 sequence (Q93009 whole entry, canonical isoform): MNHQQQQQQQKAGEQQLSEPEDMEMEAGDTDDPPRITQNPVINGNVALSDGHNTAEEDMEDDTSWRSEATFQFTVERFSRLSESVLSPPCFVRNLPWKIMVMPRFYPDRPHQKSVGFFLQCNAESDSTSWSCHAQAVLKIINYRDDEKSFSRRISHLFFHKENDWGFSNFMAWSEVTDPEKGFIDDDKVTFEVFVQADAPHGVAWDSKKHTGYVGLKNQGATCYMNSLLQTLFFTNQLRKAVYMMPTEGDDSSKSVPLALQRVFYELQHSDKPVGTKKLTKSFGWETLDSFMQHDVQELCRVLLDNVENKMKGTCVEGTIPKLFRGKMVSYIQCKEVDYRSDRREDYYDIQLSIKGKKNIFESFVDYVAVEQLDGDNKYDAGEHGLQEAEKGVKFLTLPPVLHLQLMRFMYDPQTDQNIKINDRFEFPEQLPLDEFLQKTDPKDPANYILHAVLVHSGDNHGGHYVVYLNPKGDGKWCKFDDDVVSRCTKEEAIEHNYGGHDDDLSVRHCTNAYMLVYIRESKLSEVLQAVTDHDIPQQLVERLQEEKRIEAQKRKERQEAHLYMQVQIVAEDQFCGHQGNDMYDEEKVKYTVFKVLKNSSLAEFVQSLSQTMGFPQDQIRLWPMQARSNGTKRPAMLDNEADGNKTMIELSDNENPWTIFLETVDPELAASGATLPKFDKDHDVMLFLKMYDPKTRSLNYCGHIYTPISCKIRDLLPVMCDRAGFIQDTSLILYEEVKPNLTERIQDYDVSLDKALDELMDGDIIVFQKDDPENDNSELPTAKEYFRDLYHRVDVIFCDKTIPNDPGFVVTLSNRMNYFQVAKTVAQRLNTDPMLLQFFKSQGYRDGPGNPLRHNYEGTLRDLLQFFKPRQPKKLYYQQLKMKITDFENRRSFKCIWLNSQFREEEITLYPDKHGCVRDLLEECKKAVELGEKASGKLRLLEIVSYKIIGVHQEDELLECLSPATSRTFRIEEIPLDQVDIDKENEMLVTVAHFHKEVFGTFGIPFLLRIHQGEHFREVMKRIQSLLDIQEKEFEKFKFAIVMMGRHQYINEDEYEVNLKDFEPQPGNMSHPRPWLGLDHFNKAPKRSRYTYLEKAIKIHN
Test: pull-down; equal amounts (0.42 pmol) of purified His-tagged USP7S and PPM1G incubated at room temperature for 30 min; USP7S pulled down with magnetic Ni-NTA agarose beads (magnetic beads as mock control); western blot with USP7S and PPM1G antibodies
Settings: both partners purified

binding result: binds
B1: PPM1G, purified recombinant (enzyme, human, UniProt O15355 1-546, looked up)
chain: MGAYLSQPNTVKCSGDGVGAPRLPLPYGFSAMQGWRVSMEDAHNCIPELDSETAMFSVYDGHGGEEVALYCAKYLPDIIKDQKAYKEGKLQKALEDAFLAIDAKLTTEEVIKELAQIAGRPTEDEDEKEKVADEDDVDNEEAALLHEEATMTIEELLTRYGQNCHKGPPHSKSGGGTGEEPGSQGLNGEAGPEDSTRETPSQENGPTAKAYTGFSSNSERGTEAGQVGEPGIPTGEAGPSCSSASDKLPRVAKSKFFEDSEDESDEAEEEEEDSEECSEEEDGYSSEEAENEEDEDDTEEAEEDDEEEEEEMMVPGMEGKEEPGSDSGTTAVVALIRGKQLIVANAGDSRCVVSEAGKALDMSYDHKPEDEVELARIKNAGGKVTMDGRVNGGLNLSRAIGDHFYKRNKNLPPEEQMISALPDIKVLTLTDDHEFMVIACDGIWNVMSSQEVVDFIQSKISQRDENGELRLLSSIVEELLDQCLAPDTSGDGTGCDNMTCIIICFKPRNTAELQPESGKRKLEEVLSTEGAEENGNSDKKKKAKRD
notes: Serine/threonine protein phosphatase PPM1G (PP2Cγ), human; also called PP2Cγ; PPM1GGST; source: purified recombinant
